Assay results taken from US20260274955A1 (JANUX THERAPEUTICS, published 2026).

B1: Phage-452 (peptide)
peptide: YCDGHAKEYMDKCL
notes: on phage, pIII fusion
B2: Phage-874 (peptide)
peptide: YCDGHSTEYMWKCL
B3: Phage-866 (peptide)
peptide: YCQGHLPIYIQKCL
B4: Phage-878 (peptide)
peptide: YCEGHAPVYMQKCL
B5: Phage-467 (peptide)
peptide: YCDGHSPEYIGKCL
notes: on phage, pIII fusion
B6: Phage-494 (peptide)
peptide: YCDGHSLEYIGKCL
notes: on phage, pIII fusion
B7: Phage-863 (peptide)
peptide: YCEGHKKEYMLKCL
B8: Phage-883 (peptide)
peptide: YCDGHWPGYLWKCL
B9: Phage-873 (peptide)
peptide: YCAGHIPQYLNKCL
B10: Phage-450 (peptide)
peptide: YCDGHSPAYIWKCL
notes: on phage, pIII fusion
B11: Phage-879 (peptide)
peptide: YCDGHDEQYLMKCL
B12: Phage-871 (peptide)
peptide: YCEGHLGLYMKKCL
B13: Phage-862 (peptide)
peptide: YCDGHIMPYLDKCL
B14: Phage-877 (peptide)
peptide: YCEGHMQWYMAKCL
B15: Phage-865 (peptide)
peptide: YCDGHLETYMQKCL
B16: Phage-465 (peptide)
peptide: YCEGHLPQYMRPCL
notes: on phage, pIII fusion
B17: Phage-876 (peptide)
peptide: YCAGHDAEYMQKCL
B18: Phage-875 (peptide)
peptide: YCEGHIKDYMTKCL
B19: Phage-886 (peptide)
peptide: YCDGHTWMYKQKCL
B20: Phage-884 (peptide)
peptide: YCTGWQVAYMQNCF
B21: Phage-882 (peptide)
peptide: YCDGHSQIYMSKCL
B22: Phage-466 (peptide)
peptide: YCEGHLSQYMSKCL
notes: on phage, pIII fusion
B23: Phage-463 (peptide)
peptide: YCDGHIGLYLNKCL
notes: on phage, pIII fusion
B24: Phage-872 (peptide)
peptide: YCAGHAQEYMRKCL
B25: Phage-462 (peptide)
peptide: YCDGHSADYMAKCL
notes: on phage, pIII fusion
B26: Phage-870 (peptide)
peptide: YCDGHAAMYMSKCL

Experiments:
[1] = target: T1, anti-CD28 Fab (SEQ ID NOs: 202, 203); assay: phage ELISA on captured Fab, wells pre-incubated with CD28 antigen (competitor);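 note: clonal phage ELISA with wells pretreated with CD28 plus blocking buffer before phage addition, bound phage detected by HRP-linked anti-M13 antibody, reference wells got blocking buffer only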
T1 construct: biotinylated and captured on neutravidin coated plates in the phage ELISA
Method: (§1) Clonal phage were harvested as crude supernatants and screened via standard ELISAs. […] Prior to the addition of clonal phage, wells were incubated with blocking buffer and CD28 antigen or blocking buffer alone. Without washing or aspirating, clonal phage supernatants were then added to the wells and incubated for a short time. Wells were then washed followed by detection of bound phage using a horse radish conjugated anti-M13 antibody.

[2] = target: T1, anti-CD28 Fab (SEQ ID NOs: 202, 203); assay: phage ELISA on captured Fab;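 note: ELISA with clonal phage supernatants added to wells preincubated with CD28 antigen or with blocking buffer only, bound phage detected by HRP-conjugated anti-M13 antibody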
Method: as §1

[3] = target: Anti-CD28 Fab (SEQ ID NOs: 202, 203); assay: phage binding ELISA on captured Fab;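 note: clonal phage supernatants added briefly to wells pre-incubated with CD28 antigen or with blocking buffer only, then washed, bound phage read by ELISA using HRP-coupled anti-M13 antibody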
Method: as §1

[4] = target: Anti-CD28 Fab (SEQ ID NOs: 202, 203); assay: phage binding ELISA on captured Fab, competitor CD28 antigen;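 note: clonal phage supernatant binding in wells preincubated with CD28 antigen in blocking buffer, detected by HRP-conjugated anti-M13 antibody ELISA, compared with blocking buffer alone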
Method: as §1

T1 sequence (VH, as listed by the source, chain 1 of 2): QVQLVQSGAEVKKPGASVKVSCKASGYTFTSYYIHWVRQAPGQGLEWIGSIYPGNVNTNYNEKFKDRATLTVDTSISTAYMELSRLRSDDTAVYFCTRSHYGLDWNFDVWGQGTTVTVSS
T1 sequence (VL, as listed by the source, chain 2 of 2): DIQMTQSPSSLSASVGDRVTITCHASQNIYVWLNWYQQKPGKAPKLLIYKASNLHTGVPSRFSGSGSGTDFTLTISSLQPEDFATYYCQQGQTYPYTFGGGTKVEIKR
Anti-CD28 Fab (SEQ ID NOs: 202, 203), sequence (VH, as listed by the source, chain 1 of 2): as the sequence (VH, as listed by the source, chain 1 of 2) above
Anti-CD28 Fab (SEQ ID NOs: 202, 203), sequence (VL, as listed by the source, chain 2 of 2): as the sequence (VL, as listed by the source, chain 2 of 2) above

| Binder | Anti-CD28 Fab signal in the presence of CD28 [1] | Anti-CD28 Fab (SEQ ID NOs: 202, 203) signal [2] | Anti-CD28 Fab (SEQ ID NOs: 202, 203) signal [3] | Anti-CD28 Fab signal in the presence of CD28 [4] |
| --- | --- | --- | --- | --- |
| B1 | 0.08 | 1.68 |  |  |
| B2 |  |  | 0.49 | 0.06 |
| B3 |  |  | 0.51 | 0.07 |
| B4 |  |  | 0.44 | 0.08 |
| B5 | 0.07 | 1.66 |  |  |
| B6 | 0.06 | 1.63 |  |  |
| B7 |  |  | 0.56 | 0.08 |
| B8 |  |  | 0.42 | 0.06 |
| B9 |  |  | 0.49 | 0.07 |
| B10 | 0.08 | 1.68 |  |  |
| B11 |  |  | 0.44 | 0.07 |
| B12 |  |  | 0.49 | 0.06 |
| B13 |  |  | 0.57 | 0.05 |
| B14 |  |  | 0.45 | 0.09 |
| B15 |  |  | 0.53 | 0.08 |
| B16 | 0.08 | 1.66 |  |  |
| B17 |  |  | 0.46 | 0.06 |
| B18 |  |  | 0.47 | 0.08 |
| B19 |  |  | 0.4 | 0.08 |
| B20 |  |  | 0.42 | 0.06 |
| B21 |  |  | 0.42 | 0.06 |
| B22 | 0.07 | 1.66 |  |  |
| B23 | 0.06 | 1.66 |  |  |
| B24 |  |  | 0.49 | 0.07 |
| B25 | 0.07 | 1.67 |  |  |
| B26 |  |  | 0.5 | 0.07 |
